From paper PMC11088181, “Monocytes release cystatin F dimer to associate with Aβ and aggravate amyloid pathology and cognitive deficits in Alzheimer’s disease” (Journal of Neuroinflammation, 2024)

B1: cystatin F in human plasma (natural protein, human (endogenous in plasma), UniProt O76096 20-145, looked up)
chain: GPSPDTCSQDLNSRVKPGFPKTIKTNDPGVLQAARYSVEKFNNCTNDMFLFKESRITRALVQIVKGLKYMLEVEIGRTTCKKNQHLRLDDCDFQTNHTLKQTLSCYSEVWVVPWLQHFEVPVLRCH
notes: cystatin F, secreted form in plasma; also called secreted cystatin F; cystatin F dimer; source: endogenous, human plasma (AD patients and controls)
B2: native cystatin F in cultured monocytes (natural protein, UniProt O76096 20-145, looked up)
chain: B1 chain
notes: cystatin F of cultured monocytes; also called intracellular cystatin F protein; extracellular proteins; source: endogenous, cultured monocytes (intracellular and extracellular)

Target: the molecule itself
Experiment: native gel or EMSA; nondenaturing gel (loading buffer without DTT) and western blot with anti-cystatin F; plasma diluted in PBS, or cultured monocytes

Row | Protein | stoichiometry N
1 | B1 | 2
2 | B2 | 2
